Assay results reported in the array DNA melting data of Ke et al..

Test: melting temperature; UV melt of duplexes

Substance	Tm (sodium 0.07 M, strand 2 µM) [°C]	Tm (sodium 0.12 M, strand 2 µM) [°C]	Tm (sodium 0.22 M, strand 2 µM) [°C]	Tm (sodium 0.62 M, strand 2 µM) [°C]	Tm (sodium 1.02 M, strand 2 µM) [°C]	further results
CTCAACTTGCGGTAAATAAATCGCTTAATC+GATTAAGCGATTTATTTACCGCAAGTTGAG ((((((((((((((((((((((((((((((+))))))))))))))))))))))))))))))	60.9	64.8	68.7	74.4	75.5	
GTCCACGCCCGGTGCGACGG+CCGTCGCACCGGGCGTGGAC ((((((((((((((((((((+))))))))))))))))))))	70.9	73.9	77.3	79.8	81.1	
GCGAGCGACAGGTTACTTGGCTGAT+ATCAGCCAAGTAACCTGTCGCTCGC (((((((((((((((((((((((((+)))))))))))))))))))))))))	67	70.8	74.7	78.6	80.1	
GTATAACCGGTTATAC+GTATAACCGGTTATAC ((((((((((((((((+))))))))))))))))						Tm (sodium 1 M, strand 0.0001 M): 65.9 °C
AATATATGAATTCTAATTAA+TTAATTAGAATTCATATATT ((((((((((((((((((((+))))))))))))))))))))						Tm (sodium 0.12 M, strand 6 µM): 44.7 °C
ACCGACGACGCTGATCCGAT+ATCGGATCAGCGTCGTCGGT ((((((((((((((((((((+))))))))))))))))))))	66	69.1	72.6	76.8	77.3	
GTTCTATACTCTTGAAGTTGATTAC+GTAATCAACTTCAAGAGTATAGAAC (((((((((((((((((((((((((+)))))))))))))))))))))))))	52.7	56.1	60.6	66.1	67.7	
CGGGACCAACTAAAGGAAAT+ATTTCCTTTAGTTGGTCCCG ((((((((((((((((((((+))))))))))))))))))))	53.7	57.7	61.7	66.7	68.5	
ATAAAAATGAATTCATTTTTAT+ATAAAAATGAATTCATTTTTAT ((((((((((((((((((((((+))))))))))))))))))))))						Tm (sodium 0.12 M, strand 7 µM): 52.8 °C
TCGGAGAAATCACTGAGCTGCCTGAGAAGA+TCTTCTCAGGCAGCTCAGTGATTTCTCCGA ((((((((((((((((((((((((((((((+))))))))))))))))))))))))))))))	66.3	70.4	74.1	79	80.9	
ATATATATAGCTATATATAT+ATATATATAGCTATATATAT ((((((((((((((((((((+))))))))))))))))))))						Tm (sodium 0.12 M, strand 5 µM): 44.8 °C
ATATATATAGCTTTTTTTTT+AAAAAAAAAGCTATATATAT ((((((((((((((((((((+))))))))))))))))))))						Tm (sodium 0.12 M, strand 6 µM): 44.3 °C
GTAGAATTCTTTTCCTTCTAGATCG+CGATCTAGAAGGAAAAGAATTCTAC (((((((((((((((((((((((((+)))))))))))))))))))))))))						Tm (sodium 0.1 M, strand 1 µM): 62 °C
CGCGCGCGACTGACTG+CAGTCAGTCGCGCGCG ((((((((((((((((+))))))))))))))))						Tm (sodium 0.12 M, strand 44 µM): 69.4 °C
ATAACTTTACGTGTGTGACCTATTA+TAATAGGTCACACACGTAAAGTTAT (((((((((((((((((((((((((+)))))))))))))))))))))))))	56.6	60.7	64.7	69.6	71.8	
AAAGTACATCAACATAGAGAATTGCATTTC+GAAATGCAATTCTCTATGTTGATGTACTTT ((((((((((((((((((((((((((((((+))))))))))))))))))))))))))))))	58.3	61.9	66.1	71.3	73.2	
CGCAAAAAAAAAACGC+GCGTTTTTTTTTTGCG ((((((((((((((((+))))))))))))))))						Tm (sodium 0.1 M, strand 4 µM): 54.1 °C
AACGCGCGTGAATTCTGGCCGCAA+TTGCGGCCAGAATTCACGCGCGTT ((((((((((((((((((((((((+))))))))))))))))))))))))						Tm (sodium 0.12 M, strand 6 µM): 75.8 °C
AATATATATAGAGTGCGCGCAA+TTGCGCGCACTCTATATATATT ((((((((((((((((((((((+))))))))))))))))))))))						Tm (sodium 0.12 M, strand 3.3 µM): 64.1 °C
GCCGAGGTCCATGTCGTACGC+GCGTACGACATGGACCTCGGC (((((((((((((((((((((+)))))))))))))))))))))						Tm (sodium 0.1 M, strand 4 µM): 69.5 °C
GTTATTCCGCAGTCCGATGGCAGCAGGCTC+GAGCCTGCTGCCATCGGACTGCGGAATAAC ((((((((((((((((((((((((((((((+))))))))))))))))))))))))))))))	70.6	74.9	78.1	82.4	84.1	
CGAGCTTATCCCTATCCCTC+GAGGGATAGGGATAAGCTCG ((((((((((((((((((((+))))))))))))))))))))	56	60.2	64.1	68.5	70.3	
